Experimental findings from the supplement of paper PMC10724198 are described below.

± gives the standard deviation of the averaged measurements.

The subject of data set [1] is Saccharomyces cerevisiae. The data set is described as follows: protein stability index of tFT-peptide fusion (C-terminal peptide) (PSI (0-1 scale)); higher = more stable (slower turnover). The method, then:
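MPS profiling in S. cerevisiae of the tFT-X12 degron library: putative degron peptides plus stable controls, 12 aa, fused to the C-terminus of a sfGFP-mCherry timer. Cells are FACS-sorted into 8 mCherry/sfGFP bins and deep-sequenced. PSI runs from 0 (unstable) to 1 (stable). Backgrounds are wild type, das1Δ and doa10Δ at 30 °C, and wild type, das1Δ, cdc34-1 and cdc53-1 at 37 °C; 2-3 technical replicates each.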

The subject of data set [2] is Saccharomyces cerevisiae. The description is as above. The settings on record: genetic background: wild type; temperature: 30 C.
The mark [3] stands for this setting: genetic background: cdc34-1, temperature: 37 C.
Where [4] appears, read: genetic background: cdc53-1, temperature: 37 C.
The mark [5] stands for this setting: genetic background: das1 deletion, temperature: 30 C.
Setting [6] is: genetic background: das1 deletion, temperature: 37 C.
The mark [7] stands for this setting: genetic background: doa10 deletion, temperature: 30 C.
The mark [8] stands for this setting: genetic background: wild type, temperature: 30 C.
[9] abbreviates: genetic background: wild type, temperature: 37 C.
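Note: PSI is a weighted mean of sequencing reads over stability bins, variants kept only with over 10 reads, mCherry proximal and sfGFP distal, peptide attached via GGGS linker.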

In the case of PSCLLVAPRFSS, the protein stability index worked out at 0.672 ± 0.036 in data set [1] (setting [3]); 0.745 ± 0.015 in data set [1] (setting [4]); 0.67 ± 0.022 in data set [1] (setting [5]); 0.712 ± 0.027 in data set [1] (setting [6]); 0.677 ± 0.014 in data set [1] (setting [7]); 0.694 ± 0.019 in data set [1] (setting [8]). Besides, the protein stability index in data set [1] (setting [9]) came to 0.715 ± 0.0045; in data set [2], 0.755 ± 0.017.
As for PSFSLLRSLTLI, the protein stability index stood at 0.6084 ± 0.0024 in data set [1] (setting [3]); 0.7024 ± 0.0056 in data set [1] (setting [4]); 0.6712 ± 0.0021 in data set [1] (setting [5]); 0.699 ± 0.022 in data set [1] (setting [6]); 0.192 ± 0.02 in data set [1] (setting [7]); 0.205 ± 0.022 in data set [1] (setting [8]). In addition, the protein stability index in data set [1] (setting [9]) was 0.413 ± 0.027; in data set [2] it was 0.284 ± 0.0073.
PTYTKYRTRQIN: the protein stability index in data set [1] (setting [3]) was 0.528 ± 0.066; in data set [1] (setting [4]), 0.745 ± 0.025; in data set [1] (setting [5]), 0.62 ± 0.011; in data set [1] (setting [6]), 0.7536 ± 0.0066; in data set [1] (setting [7]), 0.0947 ± 0.015; in data set [1] (setting [8]), 0.133 ± 0.04. Besides, the protein stability index is 0.156 ± 0.024 in data set [1] (setting [9]) and 0.0994 ± 0.044 in data set [2].
Take PVILISWQLRCY: the protein stability index in data set [1] (setting [3]) was 0.018 ± 0.0019; in data set [1] (setting [4]), 0.0284 ± 0.0013; in data set [1] (setting [5]) it was 0.0318 ± 0.01; in data set [1] (setting [6]) it was 0.049 ± 0.011; in data set [1] (setting [7]), 0.0188 ± 0.0012; in data set [1] (setting [8]), 0.0174 ± 0.0032. For the same sequence, the protein stability index in data set [1] (setting [9]) worked out at 0.0417 ± 0.0029; in data set [2] it was 0.0229 ± 0.026.
Take PVPPRVNLLRVS: the protein stability index in data set [1] (setting [3]) is 0.619 ± 0.034; in data set [1] (setting [4]) it was 0.6641 ± 0.0053; in data set [1] (setting [5]) it was 0.542 ± 0.028; in data set [1] (setting [6]), 0.6735 ± 0.0053; in data set [1] (setting [7]), 0.215 ± 0.0024; in data set [1] (setting [8]) it was 0.263 ± 0.031. The protein stability index in data set [1] (setting [9]) came to 0.475 ± 0.011; in data set [2], 0.3959 ± 0.0035.
Turning to PVWLSFHFFLCA, the protein stability index worked out at 0.426 ± 0.041 in data set [1] (setting [3]); 0.48 ± 0.011 in data set [1] (setting [4]); 0.369 ± 0.019 in data set [1] (setting [5]); 0.509 ± 0.013 in data set [1] (setting [6]); 0.321 ± 0.02 in data set [1] (setting [7]); 0.332 ± 0.017 in data set [1] (setting [8]). Further, the protein stability index in data set [1] (setting [9]) is 0.469 ± 0.0063; in data set [2] it was 0.44 ± 0.061.
On to QIDYSVYIFALG, for which the protein stability index was 0.4309 ± 0.00032 in data set [1] (setting [3]); 0.493 ± 0.036 in data set [1] (setting [4]); 0.279 ± 0.03 in data set [1] (setting [5]); 0.4672 ± 0.0007 in data set [1] (setting [6]); 0.261 ± 0.0014 in data set [1] (setting [7]); 0.302 ± 0.023 in data set [1] (setting [8]). In addition, the protein stability index in data set [1] (setting [9]) amounted to 0.454 ± 0.0065; in data set [2], 0.371 ± 0.026.
For QRFASFFFLHLS, the protein stability index came out at 0.411 ± 0.069 in data set [1] (setting [3]); 0.504 ± 0.061 in data set [1] (setting [4]); 0.585 ± 0.012 in data set [1] (setting [5]); 0.6374 ± 0.0022 in data set [1] (setting [6]); 0.157 ± 0.028 in data set [1] (setting [7]); 0.142 ± 0.036 in data set [1] (setting [8]). The protein stability index in data set [1] (setting [9]) was 0.251 ± 0.011; in data set [2], 0.227 ± 0.0046.
On to QRTNTIINKRIV, for which the protein stability index in data set [1] (setting [3]) is 0.704 ± 0.036; in data set [1] (setting [4]), 0.753 ± 0.016; in data set [1] (setting [5]), 0.623 ± 0.028; in data set [1] (setting [6]) it was 0.736 ± 0.012; in data set [1] (setting [7]), 0.478 ± 0.03; in data set [1] (setting [8]), 0.477 ± 0.028. Further, the protein stability index in data set [1] (setting [9]) is 0.705 ± 0.041; in data set [2], 0.565 ± 0.096.
Regarding RALSLPPLLLVL, the protein stability index is 0.386 ± 0.013 in data set [1] (setting [3]); 0.443 ± 0.038 in data set [1] (setting [4]); 0.319 ± 0.013 in data set [1] (setting [5]); 0.48 ± 0.011 in data set [1] (setting [6]); 0.338 ± 0.029 in data set [1] (setting [7]); 0.326 ± 0.029 in data set [1] (setting [8]). In addition, the protein stability index in data set [1] (setting [9]) came to 0.4351 ± 0.0017; in data set [2] it was 0.423 ± 0.023.
RCIFYHSPVLCL: the protein stability index in data set [1] (setting [3]) amounted to 0.469 ± 0.022; in data set [1] (setting [4]) it was 0.515 ± 0.022; in data set [1] (setting [5]), 0.399 ± 0.023; in data set [1] (setting [6]), 0.51 ± 0.0089; in data set [1] (setting [7]), 0.365 ± 0.0064; in data set [1] (setting [8]), 0.398 ± 0.018. For the same sequence, the protein stability index in data set [1] (setting [9]) was 0.511 ± 0.041; in data set [2], 0.449 ± 0.02.
Turning to RCQILSYCLLFV, the protein stability index in data set [1] (setting [3]) came to 0.4186 ± 0.0033; in data set [1] (setting [4]), 0.42 ± 0.017; in data set [1] (setting [5]) it was 0.34 ± 0.025; in data set [1] (setting [6]), 0.477 ± 0.016; in data set [1] (setting [7]), 0.381 ± 0.025; in data set [1] (setting [8]), 0.33 ± 0.024. Further, the protein stability index stood at 0.4523 ± 0.0013 in data set [1] (setting [9]) and 0.407 ± 0.012 in data set [2].
In the case of RCSLRLRFIFVR, the protein stability index in data set [1] (setting [3]) came out at 0.0761 ± 0.024; in data set [1] (setting [4]) it was 0.0507 ± 0.018; in data set [1] (setting [5]) it was 0.128 ± 0.019; in data set [1] (setting [6]) it was 0.159 ± 0.0038; in data set [1] (setting [7]), 0.254 ± 0.024; in data set [1] (setting [8]), 0.104 ± 0.022. In addition, the protein stability index in data set [1] (setting [9]) was found to be 0.116 ± 0.0027; in data set [2] it was 0.166 ± 0.0029.
As for RFFFASRYIECF, the protein stability index in data set [1] (setting [3]) was 0.181 ± 0.0096; in data set [1] (setting [4]), 0.173 ± 0.027; in data set [1] (setting [5]), 0.216 ± 0.014; in data set [1] (setting [6]), 0.354 ± 0.013; in data set [1] (setting [7]) it was 0.187 ± 0.0019; in data set [1] (setting [8]), 0.22 ± 0.036. The figures for the protein stability index in data set [1] (setting [9]) and in data set [2] were 0.281 ± 0.028 and 0.416 ± 0.11, respectively.
Take RFWFTFYLIAVF: the protein stability index is 0.0612 ± 0.029 in data set [1] (setting [3]); 0.0779 ± 0.017 in data set [1] (setting [4]); 0.109 ± 0.031 in data set [1] (setting [5]); 0.203 ± 0.0098 in data set [1] (setting [6]); 0.0617 ± 0.016 in data set [1] (setting [7]); 0.0761 ± 0.023 in data set [1] (setting [8]). Also, the protein stability index is 0.163 ± 0.081 in data set [1] (setting [9]) and 0.103 ± 0.0027 in data set [2].
Take RGWGGGTWVKMG: the protein stability index in data set [1] (setting [3]) is 0.592 ± 0.011; in data set [1] (setting [4]) it was 0.72324 ± 0.00012; in data set [1] (setting [5]), 0.664 ± 0.018; in data set [1] (setting [6]) it was 0.767 ± 0.013; in data set [1] (setting [7]), 0.113 ± 0.019; in data set [1] (setting [8]), 0.121 ± 0.015. Besides, the protein stability index in data set [1] (setting [9]) was determined as 0.203 ± 0.004; in data set [2] it was 0.3012 ± 0.0016.
